# According to patent US11673947B2, “Target tissue-specific antigen-binding molecule” (Chugai Seiyaku Kabushiki Kaisha, priority 2012, dated 2023):
# Tests used:
# [1] = test system: BaF/hIL6R (Ba/F3 cells expressing human IL-6 receptor); assay: ADCC (chrome release) with human PBMC as effector cells against BaF/hIL6R cells; format: cell-based
# Method: Variant 6RNMSC1-2_F02 with increased effector activity (the heavy chain and light chain sequences are shown in SEQ ID NOs: 94 and 91, respectively) was used. At various concentrations of 6RNMSC1-2_F02, ADCC activity against hIL-6R-expressing cells was assayed in the presence or absence of kynurenine according to the method described in Reference Example 1.
# Furthermore, there is a difference in the kynurenine concentration between normal and tumor tissues, and thus it is preferable that the ADCC activity of an antibody is exerted against antigen-expressing tumor cells only at the kynurenine concentration in tumor tissues, while at the normal-tissue kynurenine concentration, the ADCC activity is impaired or not exerted. Then, 6RNMSC1-2_F02 was assessed for ADCC activity against hIL-6R-expressing cells at various kynurenine concentrations according to the method described in Reference Example 2. […] Furthermore, in contrast to the approximately 10% ADCC activity at 4 to 6 μM which is considered to be the kynurenine concentration in normal tissues, the ADCC activity at 30 to 40 μM which is considered to be the kynurenine concentration in tumor tissues was about 25%.
# Antibodies that bind antigens in a kynurenine-dependent manner were assessed for their ADCC activity against antigen-expressing cells at different antibody concentrations according to the method described below. Human peripheral blood mononuclear cells (hereinafter referred to as human PBMC) were used as effector cells to measure the ADCC activity of each test antibody as follows.
# Syringes pre-filled with 200 μl of 1000 units/ml heparin solution (Novo-Heparin 5000 units for Injection; Novo Nordisk) were used to collect 50 ml of peripheral blood from healthy volunteers (male adult) affiliated with Chugai Pharmaceutical Co. Ltd. The peripheral blood was diluted two-fold with PBS(−), and divided into four equal parts, each of which was transferred into a pre-centrifuged leukocyte separation tube Leucosep (Greiner Bio-One) containing 15 ml of Ficoll-Paque PLUS. The separation tubes containing an aliquot of the peripheral blood were centrifuged at 2150 rpm for ten minutes at room temperature. Then, the resulting mononuclear cell fractions were collected from the tubes. The cells in each fraction were washed once with RPMI-1640 (nacalai tesque) supplemented with 10% FBS (hereinafter referred to as 10% FBS/RPMI), and then suspended at a cell density of 1×10^7 cells/ml in 10% FBS/RPMI. The cell suspensions were used as the human PBMC solution in subsequent experiments. […]
# ADCC activity was assessed based on specific chrome release rate determined by chrome release assay. […]
# BaF/hIL-6R cells = assay: Flow cytometry, binding to membrane-type hIL-6R on BaF/hIL-6R cells; format: cell-based
# Method: 6RNMSC1-2_F02 antibody which has an antigen-binding activity in the presence of kynurenine as described in Example 14 was assessed for its binding to soluble hIL-6R. As a first step in assessing the ADCC activity of 6RNMSC1-2_F02 to hIL-6R-expressing cells, 6RNMSC1-2_F02 was evaluated as to whether it has the ability to bind to membrane-type hIL-6R expressed in hIL-6R-expressing cells. Specifically, the binding of 6RNMSC1-2_F02 to cells of the BaF/hIL-6R line (WO2012/073992) was assayed and analyzed using a flow cytometer. An appropriate number of BaF/hIL-6R cells were prepared and blocked with PBS containing 2% FBS on ice for one hour or more. Supernatant was removed from the blocked cells by centrifugation, and 100 μl of 6RNMSC1-2_F02 or the control antibody MRA (the heavy chain and light chain sequences are shown in SEQ ID NOs: 92 and 93, respectively) was added under two conditions: in the presence or absence of a final concentration of kynurenine at 100 μM. In this step, the antibodies were contacted with cell-membrane hIL-6R on ice for 30 minutes. […] Then, in the presence or absence of kynurenine, the complex was contacted with a secondary antibody (Beckman Coulter IM1627) that recognizes the antibody constant region. […] The binding of 6RNMSC1-2_F02 to the prepared cells was assayed and analyzed using the BD FACS cant II Flow Cytometer (BD).
molecule,measurement,setting,value
"6RNMSC1-2_F02: antibody that binds to hIL-6R in the presence of kynurenine; SEQ ID NOs: 86 and 87 (antibody, listed as Homo sapiens, V domains shown) VH: QVQLVQSGAEVKKPGSSVKVSCKASGGTFSSYAISWVRQAPGQGLEWMGGIIPIFGTANYAQKFQGRVTITADESTSTAYMELSSLRSEDTAVYYCARDAPVVARPRGAFDIWGQGTMVTVSS VL: DIVMTQTPLSSPVTLGQPASISCRSSQSLVHSDGNTYLSWLQQRPGQPPRLLIHEISNRFSGVPDRFSGSGAGTNFTLKISRVEAEDVGVYYCMQATQFPRTFGQGTKVEIK",ADCC activity,[1]; at 4 to 6 μM kynurenine (considered the concentration in normal tissues),approximately 10%
same,ADCC activity,[1]; at 30 to 40 μM kynurenine (considered the concentration in tumor tissues),about 25%
same,ADCC activity against hIL-6R-expressing cells,"[1]; in the presence of kynurenine, various antibody concentrations, variant with increased effector activity",induced by 6RNMSC1-2_F02 in an antibody concentration-dependent manner
same,ADCC activity against hIL-6R-expressing cells at various kynurenine concentrations,[1]; various kynurenine concentrations,kynurenine concentration-dependent manner
same,fluorescence (binding to membrane-type hIL-6R),BaF/hIL-6R cells; in the absence of kynurenine,not detectable
same,fluorescence (binding to membrane-type hIL-6R),BaF/hIL-6R cells; in the presence of 100 μM kynurenine,fluorescence shift was observed
